Drawing on US20220332804A1 (CSL INNOVATION, published 2022), this text covers Kd for 1 molecule.

Holding throughout (experiment): SPR, antibody captured, C2 as analyte;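 note: biacore at 37 °C, anti-C2 mAbs held by immobilised goat anti-human IgG, C2 alanine or serine mutants injected, double-referenced sensorgrams fitted to a 1:1 kinetic or steady-state model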
In one assay the target is T1, human C2 K244A (human, UniProt P06681 21-752).
T1 sequence: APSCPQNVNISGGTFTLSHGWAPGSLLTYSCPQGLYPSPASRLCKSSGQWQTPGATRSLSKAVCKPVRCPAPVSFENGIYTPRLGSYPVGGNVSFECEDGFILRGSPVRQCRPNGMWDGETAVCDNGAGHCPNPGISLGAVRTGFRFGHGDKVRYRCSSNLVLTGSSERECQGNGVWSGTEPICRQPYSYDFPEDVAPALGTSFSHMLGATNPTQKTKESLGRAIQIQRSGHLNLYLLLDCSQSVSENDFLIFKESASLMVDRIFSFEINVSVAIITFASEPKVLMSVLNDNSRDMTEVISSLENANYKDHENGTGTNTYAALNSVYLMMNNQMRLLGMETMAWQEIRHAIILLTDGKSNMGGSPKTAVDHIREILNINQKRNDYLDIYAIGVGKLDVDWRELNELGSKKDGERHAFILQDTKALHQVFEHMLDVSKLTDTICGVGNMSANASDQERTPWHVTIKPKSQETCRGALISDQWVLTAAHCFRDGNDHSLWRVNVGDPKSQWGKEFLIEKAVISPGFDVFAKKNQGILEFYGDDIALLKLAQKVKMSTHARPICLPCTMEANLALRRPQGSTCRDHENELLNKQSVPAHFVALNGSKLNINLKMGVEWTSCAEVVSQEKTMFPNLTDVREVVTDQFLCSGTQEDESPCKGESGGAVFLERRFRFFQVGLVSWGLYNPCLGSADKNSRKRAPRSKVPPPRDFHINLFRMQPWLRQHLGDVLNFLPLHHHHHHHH

The next assay deals with T2, human C2 W420A (human, UniProt P06681 21-752).
T2 sequence: T1 sequence with A224K, W400A

For another assay, the target named is T3, human C2 G414A (human, UniProt P06681 21-752).
T3 sequence: T1 sequence with A224K, G394A

The target in a further assay is T4, human C2 K329A (human, UniProt P06681 21-752).
T4 sequence: T1 sequence with A224K, K309A

Changes are numbered by the printed parent chain.

B1: RF16-242 (antibody, human IgG4 S228P, lambda, V domains shown)
VH: EVQLLQSGAEVKKPGESLKISCKGSGYSFTSYWIGWVRQMPGKGLEWMGIIYPGDSDTRYSPSFQGQVTISADKSISTAYLQWSSLKASDTAMYYCARRGHYGDYFDYWGQGTLVTVSS
VL: SYELTQPPSVSVSPGQTARITCSGDALPKKYAYWYHQKSGQAPVLVIYEDRRRPSEIPERFSGSSSGTMATLTITGAQVEDEGVYFCYSRDRAGNQRVFGGGTQLTVLG
notes: pH-dependent anti-C2 antibody from a phage display library
For B1, the Kd with human C2 K244A was 26.2 nM; with human C2 W420A, 13.2 nM; with human C2 G414A, 4.2 nM; in the assay with human C2 K329A, 14.8 nM.
